For seven molecules, IC50 results are on record in US20080299072A1 (LABORATOIRES SERONO, published 2008).

By IC50 is commonly meant the concentration that inhibits the measured activity by half. A lower IC50 goes with greater potency in that assay.

T1: CCR1 (UniProt P32246 1-355, limits assumed)
T1 construct: whole, on cells; Membrane preparation of CHO transfectants; also called CCR1-expressing CHO membranes
T1 sequence (looked up): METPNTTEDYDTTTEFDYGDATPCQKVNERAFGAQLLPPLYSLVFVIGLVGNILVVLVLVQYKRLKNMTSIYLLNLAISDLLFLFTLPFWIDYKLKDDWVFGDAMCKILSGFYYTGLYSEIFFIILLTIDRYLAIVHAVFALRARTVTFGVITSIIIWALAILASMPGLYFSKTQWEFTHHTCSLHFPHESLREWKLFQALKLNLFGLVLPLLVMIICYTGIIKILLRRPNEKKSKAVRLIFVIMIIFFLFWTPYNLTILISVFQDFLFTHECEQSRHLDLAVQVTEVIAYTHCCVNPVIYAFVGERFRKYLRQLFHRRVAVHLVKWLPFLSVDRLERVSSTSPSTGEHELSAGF

B1: Met-RANTES (ligand)
chain: MSPYSSDTTPCCFAYIARPLPRAHIKEYFYTSGKCSNPAVVFVTRKNRQVCANPEKKWVREYINSLEMS
notes: The build (Met + mature RANTES) comes from the background description and the name
B2: S4C-5 kDaPEG-RANTES (ligand)
chain: SPYC(mPEG‑MAL 5 kDa)SDTTPCCFAYIARPLPRAHIKEYFYTSGKCSNPAVVFVTRKNRQVCANPEKKWVREYINSLEMS
notes: This is probably a printing error; also called S4C-5 kDa-RANTES
B3: S1C-5 kDaPEG-RANTES (ligand)
chain: C(mPEG‑MAL 5 kDa)PYSSDTTPCCFAYIARPLPRAHIKEYFYTSGKCSNPAVVFVTRKNRQVCANPEKKWVREYINSLEMS
notes: Expressed without a leader; also called S1C-5 kDa-RANTES
B4: S5C-5 kDaPEG-RANTES (ligand)
chain: SPYSC(mPEG‑MAL 5 kDa)DTTPCCFAYIARPLPRAHIKEYFYTSGKCSNPAVVFVTRKNRQVCANPEKKWVREYINSLEMS
notes: also called S5C-5 kDa-RANTES
B5: PEG-2 kDa-RANTES (ligand)
chain: {mPEG‑ButyrALD 2 kDa}-SPYSSDTTPCCFAYIARPLPRAHIKEYFYTSGKCSNPAVVFVTRKNRQVCANPEKKWVREYINSLEMS
notes: also called N-terminal PEGylated wt RANTES (2 kDa)
B6: Mature wildtype (wt) human RANTES (ligand)
chain: SPYSSDTTPCCFAYIARPLPRAHIKEYFYTSGKCSNPAVVFVTRKNRQVCANPEKKWVREYINSLEMS
notes: The mature form was used; also called WT RANTES; CCL5
B7: PEG-5 kDa-RANTES (ligand)
chain: {mPEG‑ButyrALD 5 kDa}-SPYSSDTTPCCFAYIARPLPRAHIKEYFYTSGKCSNPAVVFVTRKNRQVCANPEKKWVREYINSLEMS
notes: also called N-terminal PEGylated wt RANTES (5 kDa)

The first assay deals with T2, CCR5 (UniProt P51681 1-352, limits assumed).
T2 construct: whole, on cells; L1.2/CCR5 cells for chemotaxis; also called CCR5-expressing CHO membranes; L1.2/CCR5 transfectants
T2 sequence (P51681 whole entry): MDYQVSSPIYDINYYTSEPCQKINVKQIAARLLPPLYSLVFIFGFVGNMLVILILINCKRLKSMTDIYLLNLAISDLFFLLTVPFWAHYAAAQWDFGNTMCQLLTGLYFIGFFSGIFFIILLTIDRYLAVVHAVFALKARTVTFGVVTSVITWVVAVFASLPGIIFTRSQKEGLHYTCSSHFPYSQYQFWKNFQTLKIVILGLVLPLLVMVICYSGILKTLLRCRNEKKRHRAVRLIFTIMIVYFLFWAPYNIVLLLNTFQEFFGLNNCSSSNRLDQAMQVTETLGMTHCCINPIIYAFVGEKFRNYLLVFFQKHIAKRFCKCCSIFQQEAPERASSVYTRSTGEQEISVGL
Nature of the assay: competition SPA, displacement of 125I-MIP-1α from CCR5 CHO membranes (FIG. 2). The procedure: FIG. 2: Equilibrium competition binding to CCR5. The binding assay was performed by monitoring the displacement of [¹²⁵I]-MIP-1α from CCR5-expressing CHO membranes. A) PEGylated Ser/Cys variants. Added as competitors were: RANTES (□), Met-RANTES (x), S1C-5 kDaPEG-RANTES (▪), S4C-5 kDaPEG-RANTES, S5C-5 kDaPEG-RANTES (□). B) N-terminal PEGylated wt RANTES variants. Added as competitors were RANTES (□), Met-RANTES (x), PEG-2 kDa-RANTES (▴), PEG-5 kDa-RANTES (▾).
(§1) The assay was carried out on membranes isolated from CHO transfectants expressing CCR1 and CCR5 from Invitrogen® using a scintillation proximity assay (Alouani, 2000). The unlabelled chemokines were prepared in triplicate by serial dilution in the range of 10⁻⁶ to 10⁻¹² M in 50 mM HEPES pH 7.5, containing 1 mM CaCl₂, 5 mM MgCl₂ and 0.5% bovine serum albumin (binding buffer). Wheatgerm scintillation proximity assay beads (Amersham®) were solubilized at 50 mg/ml in PBS, diluted to 10 mg/ml in binding buffer and put at 250 μg/well. Membranes were diluted to 80 μg/ml in binding buffer and put at 2 μg/well in the assay plates. ¹²⁵I-MIP-1α (Amersham®) was put at 0.1 nM/well and finally unlabelled chemokine was added into the plate. The plates were incubated for 3 h at room temperature with agitation and radioactivity was read with a Wallac counter.
A general note: In a radioligand displacement assay an active substance lowers the binding of a labelled ligand.
With B1, the IC50 was 0.0155 µM.

For B2, the IC50 turned out to be 0.0454 µM.

For the molecule B3, the IC50 amounted to 0.0825 µM.

The next assay deals with T2, CCR5. Put plainly: competition SPA, displacement of 125I-MIP-1α from CCR5 CHO membranes. The procedure: as §1
In the case of B1, the IC50 was determined as 0.0152 µM. This lies in the double-digit nanomolar range.

B2 registered an IC50 of 0.04 µM.

As for B4, the IC50 is 0.902 µM.

Turning to B3, the IC50 was 0.041 µM. Compared with the last molecule, the IC50 is about 22-fold lower.

Another assay addresses T1, CCR1. Nature of the assay: competition SPA, displacement of 125I-MIP-1α from CCR1 CHO membranes. As to the method:
as §1
B1: the IC50 came out at 0.073 µM. This lies in the double-digit nanomolar range.

The molecule B5 registered an IC50 of 0.043 µM.

In turn, B6 returned an IC50 of 0.0233 µM.

Molecule B2 had an IC50 of 0.084 µM.

As for B3, the IC50 was 0.167 µM.

B7 came in with an IC50 of 0.05 µM.

Another assay has as its target T1, CCR1. Put plainly: competition SPA, displacement of 125I-MIP-1α from CCR1 CHO membranes (FIG. 1). As to the method: FIG. 1: Equilibrium competition binding to CCR1. The binding assay was performed by monitoring the displacement of [¹²⁵I]-MIP-1α from CCR1-expressing CHO membranes. A) PEGylated Ser/Cys variants (S1C, S4C). Added as competitors were: RANTES (□), Met-RANTES (X), S1C-5 kDaPEG-RANTES (▪), S4C-5 kDaPEG-RANTES. B) N-terminal PEGylated wt RANTES variants. Added as competitors were: RANTES (□), Met-RANTES (X), PEG-2 kDa-RANTES (▴), PEG-5 kDa-RANTES (▾).
as §1
B1 returned an IC50 of 0.072 µM. In other words, the double-digit nanomolar range.

B5 returned an IC50 of 0.041 µM.

B6: the IC50 stood at 0.069 µM.

In the case of B2, the IC50 worked out at 0.083 µM.

In turn, B3 registered an IC50 of 0.272 µM. This IC50 lies about 3.3-fold higher than the previous one.

In the case of B7, the IC50 came to 0.047 µM.
